According to PMC9808001:

Tests used:
Assay in all cases: BLI; 25 nM WDR44 (334–389) wild type or mutant immobilised on anti-penta-His tips, […] nM Rab11; responses normalised to the mean wildtype response; 30 °C; 20 mM Hepes pH 7.5, 150 mM NaCl, 1 mM MgCl2, bovine serum albumin, 0.002% Tween-20
[1] = biological target: Strep-His WDR44 (334–389) I359A (human) (UniProt Q5JSH3)
[2] = biological target: Strep-His WDR44 (334–389) L370A (human) (UniProt Q5JSH3)
[3] = biological target: Strep-His WDR44 (334–389) L354A (human) (UniProt Q5JSH3)
Chain of Strep-His WDR44 (334–389) L354A (human) (Q5JSH3 334-389 L354A): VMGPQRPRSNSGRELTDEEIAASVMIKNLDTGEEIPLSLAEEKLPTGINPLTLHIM

[4] = biological target: Strep-His WDR44 (334–389) K360E (human) (UniProt Q5JSH3)
Chain of Strep-His WDR44 (334–389) K360E (human) (Q5JSH3 334-389 K360E): as the sequence (Q5JSH3 334-389 L354A) above, with A21L, K27E counted along it

Measured: percent decrease in complex formation against wild type

Chain of Strep-His WDR44 (334–389) I359A (human) (Q5JSH3 334-389 I359A): as the sequence (Q5JSH3 334-389 L354A) above, with A21L, I26A counted along it
Chain of Strep-His WDR44 (334–389) L370A (human) (Q5JSH3 334-389 L370A): as the sequence (Q5JSH3 334-389 L354A) above, with A21L, L37A counted along it

Rab11a (GTPγS-loaded) (from UniProt P62491 1-216) (natural protein)
> 95%: [1] | [2] | [3] | [4]
